Measurements: the supplement of paper PMC10567573

B1: ZNF263 (parent)
chain: QRTHTGEKPYKCPECGEIFAHSSN
B2: FAM189A2 (parent)
chain: GSEAAVIPLDLGCTQVTQDGDIPN

Variants of: B1
Assay: protein stability index of a GFP-peptide fusion (GPS, HEK-293T) (PSI 1-6); higher = more stable
Settings: c terminus: a fixed tail appended
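Further: lentivirally expressed fusions sorted by FACS into six bins by GFP to DsRed ratio, PSI derived from sequencing read proportions per bin multiplied by bin number.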

Variant | protein stability index
QRTHTGEKPYKCPECGEIFAHNSN [S22N] | 3.38
QRTHTGEKPYKCPECGEIFAHRSN [S22R] | 2.38
QRTHTGEKPYKCPECGEIFAHLSN [S22L] | 2.39
ARTHTGEKPYKCPECGEIFAHSSN [Q1A] | 2.49
PRTHTGEKPYKCPECGEIFAHSSN [Q1P] | 3.7
DRTHTGEKPYKCPECGEIFAHSSN [Q1D] | 3.36
QRTHTGEKPYKCPECGEIFAHSSG [N24G] | 3.04
QRTHTGEKPYKCPECGEIFAHSSF [N24F] | 2.74
QRTHTGEKPYKCPECGEIFAHSSE [N24E] | 3.15
QRTHTGEKPYKCPECGEIFAPSSN [H21P] | 3.5
QRTHTGEKPYKCPECGEIFALSSN [H21L] | 2.3
QRTHTGEKPYKCPECGEIFACSSN [H21C] | 3.5
QRTHTGEKPYKCPECGEIFAKSSN [H21K] | 3.78
QRTHTGEKPYKCPECGEIFAQSSN [H21Q] | 3.43
QRTHTGEKPYKCPECGQIFAHSSN [E17Q] | 3.86
QRTHTGEKPYKCPECGTIFAHSSN [E17T] | 4.77
QRLHTGEKPYKCPECGEIFAHSSN [T3L] | 3.31
QRGHTGEKPYKCPECGEIFAHSSN [T3G] | 4.28
QRPHTGEKPYKCPECGEIFAHSSN [T3P] | 3.37
QRFHTGEKPYKCPECGEIFAHSSN [T3F] | 2.67
QREHTGEKPYKCPECGEIFAHSSN [T3E] | 3.51
QRVHTGEKPYKCPECGEIFAHSSN [T3V] | 3.04
QRMHTGEKPYKCPECGEIFAHSSN [T3M] | 3.43
QRTHTGEKPYKCPELGEIFAHSSN [C15L] | 3.97

Variant | protein stability index
QRTHTGEKPYKCPEDGEIFAHSSN [C15D] | 4.8
QRTHTGEKPYKCPEWGEIFAHSSN [C15W] | 3.88
QRTHTGEKPYKCPERGEIFAHSSN [C15R] | 4.29
QRTHTGEKPYKCPEKGEIFAHSSN [C15K] | 4.75
QRTHTGEKPYKCPECREIFAHSSN [G16R] | 3
QRTHTGEKPYKCPQCGEIFAHSSN [E14Q] | 2.73
QRTHTGEKPYKCPKCGEIFAHSSN [E14K] | 3.75
QRTHTGEKPYKCPACGEIFAHSSN [E14A] | 4.22
QRTHTGEKPYKCPRCGEIFAHSSN [E14R] | 3.77
QRTHTGEKPYKCPPCGEIFAHSSN [E14P] | 3.52
QHTHTGEKPYKCPECGEIFAHSSN [R2H] | 4.35
QYTHTGEKPYKCPECGEIFAHSSN [R2Y] | 3.02
QSTHTGEKPYKCPECGEIFAHSSN [R2S] | 3.88
QRTDTGEKPYKCPECGEIFAHSSN [H4D] | 3.98
QRTPTGEKPYKCPECGEIFAHSSN [H4P] | 3.27
QRTKTGEKPYKCPECGEIFAHSSN [H4K] | 3.77
QRTLTGEKPYKCPECGEIFAHSSN [H4L] | 3.4
QRTRTGEKPYKCPECGEIFAHSSN [H4R] | 3.58
QRTHTGEKPSKCPECGEIFAHSSN [Y10S] | 3.98
QRTHTGEKPAKCPECGEIFAHSSN [Y10A] | 3.4
QRTHTGEKPMKCPECGEIFAHSSN [Y10M] | 3.66
QRTHTGEKPYKCPECGEIFKHSSN [A20K] | 3.25
QRTHTGEKPYKCPECGEIFIHSSN [A20I] | 3.46
QRTHTGEKPYKCPECGEIFGHSSN [A20G] | 3.16

Variant | protein stability index
QRTHTGEKPYKCPECGEIFFHSSN [A20F] | 3.18
QRTHTGEKPYKCPECGEIFTHSSN [A20T] | 3.11
QRTHTGEKPYKCPECGEPFAHSSN [I18P] | 3.43
QRTHTGETPYKCPECGEIFAHSSN [K8T] | 3.28
QRTHTGELPYKCPECGEIFAHSSN [K8L] | 3.41
QRTHTGEVPYKCPECGEIFAHSSN [K8V] | 3
QRTHTGEEPYKCPECGEIFAHSSN [K8E] | 3.82
QRTHTGEQPYKCPECGEIFAHSSN [K8Q] | 3.38
QRTHTGEKPYKCPECGEIFAHSRN [S23R] | 2.77
QRTHTGEKPYKCPECGEIFAHSAN [S23A] | 3.61
QRTHTGEKPYKCPECGEIFAHSPN [S23P] | 2.72
QRTHRGEKPYKCPECGEIFAHSSN [T5R] | 2.27
QRTHLGEKPYKCPECGEIFAHSSN [T5L] | 2.99
QRTHAGEKPYKCPECGEIFAHSSN [T5A] | 3.25
QRTHGGEKPYKCPECGEIFAHSSN [T5G] | 3.41
QRTHWGEKPYKCPECGEIFAHSSN [T5W] | 2.33
QRTHTGAKPYKCPECGEIFAHSSN [E7A] | 2.65
QRTHTGFKPYKCPECGEIFAHSSN [E7F] | 2.71
QRTHTGEKRYKCPECGEIFAHSSN [P9R] | 3.94
QRTHTGEKDYKCPECGEIFAHSSN [P9D] | 3.68
QRTHTGEKSYKCPECGEIFAHSSN [P9S] | 3.59
QRTHTGEKGYKCPECGEIFAHSSN [P9G] | 3.58
QRTHTGEKPYTCPECGEIFAHSSN [K11T] | 2.98
QRTHTGEKPYQCPECGEIFAHSSN [K11Q] | 3.13

Variant | protein stability index
QRTHTGEKPYDCPECGEIFAHSSN [K11D] | 4.28
QRTHTGEKPYKCPECGEILAHSSN [F19L] | 3.16
QRTHTGEKPYKCPECGEIMAHSSN [F19M] | 3.56
QRTHTGEKPYKCPECGEISAHSSN [F19S] | 3.84
QRTHTGEKPYKCPECGEIVAHSSN [F19V] | 3.46
QRTHTGEKPYKCPECGEIKAHSSN [F19K] | 4.08
QRTHTQEKPYKCPECGEIFAHSSN [G6Q] | 3.49
QRTHTPEKPYKCPECGEIFAHSSN [G6P] | 3.23
QRTHTDEKPYKCPECGEIFAHSSN [G6D] | 3.23
QRTHTREKPYKCPECGEIFAHSSN [G6R] | 2.51
QRTHTVEKPYKCPECGEIFAHSSN [G6V] | 2.79
QRTHTLEKPYKCPECGEIFAHSSN [G6L] | 3.27
QRTHTGEKPYKCYECGEIFAHSSN [P13Y] | 3.57
QRTHTGEKPYKCNECGEIFAHSSN [P13N] | 4.29
QRTHTGEKPYKCHECGEIFAHSSN [P13H] | 3.39
QRTHTGEKPYKSPECGEIFAHSSN [C12S] | 4.52
QRTHTGEKPYKAPECGEIFAHSSN [C12A] | 4.27
QRTHTGEKPYKHPECGEIFAHSSN [C12H] | 4.13
QRTHTGEKPYKKPECGEIFAHSSN [C12K] | 4.26
QRTHTGEKPYKMPECGEIFAHSSN [C12M] | 4.35
QRTHTGEKPYKWPECGEIFAHSSN [C12W] | 3.62

Variants of: B2
Assay: as above
Settings: c terminus: a fixed tail appended

Variant | protein stability index
GSEAAVIPWDLGCTQVTQDGDIPN [L9W] | 4.67
